Source: patent publication US20240390509A1, “ANTIBODY-DRUG CONJUGATE, PREPARATION METHOD THEREFOR, AND PHARMACEUTICAL USE THEREOF” (SHANGHAI HANSOH BIOMEDICAL CO., LTD., priority 2021, published 2024)

B1: DS-1062-compound D (y = 4) (conjugate, chains of the INN, looked up)
VH: QVQLVQSGAEVKKPGASVKVSCKASGYTFTTAGMQWVRQAPGQGLEWMGWINTHSGVPKYAEDFKGRVTISADTSTSTAYLQLSSLKSEDTAVYYCARSGFGSSYWYFDVWGQGTLVTVSS
VL: DIQMTQSPSSLSASVGDRVTITCKASQDVSTAVAWYQQKPGKAPKLLIYSASYRYTGVPSRFSGSGSGTDFTLTISSLQPEDFAVYYCQQHYITPLTFGQGTKLEIK
modifications: compound D drug conjugate
B2: DS-1062 (conjugate, chains of the INN, looked up)
VH: B1 VH
VL: B1 VL
modifications: deruxtecan payload

Experiments:
Set-up in all cases: species or system nude mice (Balb/c Nude)
[1] = tested on: human gastric cancer NCI-N87 tumor cell transplant mouse model; experiment: Dose-dependent in vivo anti-tumor effect, NCI-N87 transplant mouse model (Example 11); conditions: NCI-N87 xenograft, 1 mg/kg IV Q2W, day 28
Description: In order to further study the inhibitory effect of antibody-drug conjugate on tumors formed in vivo, the Trop-2 positive tumor cell human gastric cancer NCI-N87 tumor cell transplant mouse model was used to evaluate the inhibitory effect of candidate molecule on tumor proliferation in vivo. 5×10^6 NCI-N87 cells were injected subcutaneously into 6-week-old nude mice (Balb/c Nude) weighing about […]. After 8 days, the average tumor volume reached 175 mm^3 and grouping was performed, and the antibody-drug conjugate was started to be injected intravenously every 2 weeks at a dose of 2 mg/kg or 1 mg/kg. The control used human IgGI isotype control antibody at a dose of 2 mg/kg. There were 5 mice in each group of the control group or the administration group. The tumor inhibition rate was calculated by measuring the tumor volume.

[2] = tested on: human head and neck cancer squamous cell carcinoma FaDu tumor cell transplant mouse model; experiment: In vivo efficacy, FaDu transplant mouse model; conditions: FaDu xenograft, day 17
Description: In order to further study the inhibitory effect of antibody-drug conjugate on tumors formed in vivo, the Trop-2 positive tumor cell human head and neck cancer squamous cell carcinoma FaDu tumor cell transplant mouse model was used to evaluate the inhibitory effect of candidate molecule on tumor proliferation in vivo. The cell suspension mixed with Matrigel in equal proportions was added, and 5×10^6 FaDu cells per animal were injected subcutaneously into 6-week-old nude mice (Balb/c Nude) weighing about […]. After 8 days, the average tumor volume reached 133 mm^3 and grouping was performed, and the antibody-drug conjugate was started to be injected intravenously at a single dose of 3 mg/kg or 1 mg/kg. The control used human IgGI isotype control antibody at a dose of 3 mg/kg. There were 5 mice in each group of the control group or the administration group. The tumor inhibition rate was calculated by measuring the tumor volume.

[3] = tested on: lung cancer Calu-3 tumor cell transplant mouse model; experiment: In vivo efficacy, Calu-3 transplant mouse model; conditions: Calu-3 xenograft, 10 mg/kg IV single dose, day 21
Description: In order to further study the inhibitory effect of antibody-drug conjugate on tumors formed in vivo, the Trop-2 positive tumor cell lung cancer Calu-3 tumor cell transplant mouse model was used to evaluate the inhibitory effect of candidate molecule on tumor proliferation in vivo. The cell suspension mixed with Matrigel in equal proportions was added, and 2×10^6 Calu-3 cells per animal were injected subcutaneously into 6-week-old nude mice (Balb/c Nude) weighing about […]. After 8 days, the average tumor volume reached 148 mm^3 and grouping was performed, and the antibody-drug conjugate was started to be injected intravenously at a single dose of 10 mg/kg. The control used human IgG1 isotype control antibody at a dose of 10 mg/kg. There were 5 mice in each group of the control group or the administration group. The tumor inhibition rate was calculated by measuring the tumor volume.

Row | Molecule | Tumor inhibition rate [1] | Tumor inhibition rate ([2]; 1 mg/kg IV single dose) | Tumor inhibition rate ([2]; 3 mg/kg IV single dose) | Tumor inhibition rate [3]
1 | B1 | 78.2% | – | – | –
2 | B2 | – | 74.8% | 200% | 85.61%
